Results reported in publication PMC5758891.

Molecular target: T1, Lhr-(1-856) (UniProt A0QT91 1-856)
T1 sequence: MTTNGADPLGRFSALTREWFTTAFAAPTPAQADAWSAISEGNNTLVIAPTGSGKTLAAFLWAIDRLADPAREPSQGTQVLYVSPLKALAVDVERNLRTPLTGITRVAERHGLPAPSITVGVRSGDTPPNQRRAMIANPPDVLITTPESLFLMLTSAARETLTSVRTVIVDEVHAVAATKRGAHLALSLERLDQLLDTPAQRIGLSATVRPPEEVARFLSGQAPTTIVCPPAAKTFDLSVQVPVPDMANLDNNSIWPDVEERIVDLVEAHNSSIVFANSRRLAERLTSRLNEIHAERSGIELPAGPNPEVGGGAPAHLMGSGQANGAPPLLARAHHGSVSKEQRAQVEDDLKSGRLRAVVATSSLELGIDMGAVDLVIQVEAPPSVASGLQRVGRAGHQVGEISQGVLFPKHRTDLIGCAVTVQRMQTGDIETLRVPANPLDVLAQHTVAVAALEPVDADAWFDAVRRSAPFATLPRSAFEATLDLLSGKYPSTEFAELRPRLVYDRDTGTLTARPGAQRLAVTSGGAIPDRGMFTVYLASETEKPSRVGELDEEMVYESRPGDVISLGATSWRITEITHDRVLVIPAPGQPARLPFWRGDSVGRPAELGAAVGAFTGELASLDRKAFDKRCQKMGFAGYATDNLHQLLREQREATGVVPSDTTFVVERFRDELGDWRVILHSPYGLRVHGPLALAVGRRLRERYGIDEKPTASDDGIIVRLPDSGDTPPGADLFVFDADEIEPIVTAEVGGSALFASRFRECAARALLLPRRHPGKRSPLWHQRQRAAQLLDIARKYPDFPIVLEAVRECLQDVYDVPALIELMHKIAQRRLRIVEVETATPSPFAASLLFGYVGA
Test: X-ray crystallography

B1: 16-mer ssDNA (ssDNA)
DNA: GACCTGCTGCGGATTG
binding result: binds
